For data set [1], the target named is BLM RecQ-core (core-BLM) (human) (UniProt P54132). Put plainly: smFRET (GQ unfolding). As to conditions: smFRET: 150 mM K+ (or 50 mM K+, 50/150 mM Na+), 5 mM Mg2+, pH 7.5, EMSA: 50 mM K+, 50 mM Tris-HCl pH 7.5, 1 mM DTT, 22 C; for binding signal (% unfolded at 25 nM): 50 mM Na+; for binding signal: 150 mM K+, saturating BLM. (Mobility shift assays separate free from complexed probe on a gel.)

The target in data set [2] is WRN (human) (UniProt Q14191). Description: smFRET (GQ unfolding). As to conditions: 50 mM Na+, strand 2 is RNA, smFRET: 150 mM K+ (or 50 mM K+, 50/150 mM Na+), 5 mM Mg2+, pH 7.5, EMSA: 50 mM K+, 50 mM Tris-HCl pH 7.5, 1 mM DTT, 22 C.
Sequence of WRN (human) (Q14191 whole entry): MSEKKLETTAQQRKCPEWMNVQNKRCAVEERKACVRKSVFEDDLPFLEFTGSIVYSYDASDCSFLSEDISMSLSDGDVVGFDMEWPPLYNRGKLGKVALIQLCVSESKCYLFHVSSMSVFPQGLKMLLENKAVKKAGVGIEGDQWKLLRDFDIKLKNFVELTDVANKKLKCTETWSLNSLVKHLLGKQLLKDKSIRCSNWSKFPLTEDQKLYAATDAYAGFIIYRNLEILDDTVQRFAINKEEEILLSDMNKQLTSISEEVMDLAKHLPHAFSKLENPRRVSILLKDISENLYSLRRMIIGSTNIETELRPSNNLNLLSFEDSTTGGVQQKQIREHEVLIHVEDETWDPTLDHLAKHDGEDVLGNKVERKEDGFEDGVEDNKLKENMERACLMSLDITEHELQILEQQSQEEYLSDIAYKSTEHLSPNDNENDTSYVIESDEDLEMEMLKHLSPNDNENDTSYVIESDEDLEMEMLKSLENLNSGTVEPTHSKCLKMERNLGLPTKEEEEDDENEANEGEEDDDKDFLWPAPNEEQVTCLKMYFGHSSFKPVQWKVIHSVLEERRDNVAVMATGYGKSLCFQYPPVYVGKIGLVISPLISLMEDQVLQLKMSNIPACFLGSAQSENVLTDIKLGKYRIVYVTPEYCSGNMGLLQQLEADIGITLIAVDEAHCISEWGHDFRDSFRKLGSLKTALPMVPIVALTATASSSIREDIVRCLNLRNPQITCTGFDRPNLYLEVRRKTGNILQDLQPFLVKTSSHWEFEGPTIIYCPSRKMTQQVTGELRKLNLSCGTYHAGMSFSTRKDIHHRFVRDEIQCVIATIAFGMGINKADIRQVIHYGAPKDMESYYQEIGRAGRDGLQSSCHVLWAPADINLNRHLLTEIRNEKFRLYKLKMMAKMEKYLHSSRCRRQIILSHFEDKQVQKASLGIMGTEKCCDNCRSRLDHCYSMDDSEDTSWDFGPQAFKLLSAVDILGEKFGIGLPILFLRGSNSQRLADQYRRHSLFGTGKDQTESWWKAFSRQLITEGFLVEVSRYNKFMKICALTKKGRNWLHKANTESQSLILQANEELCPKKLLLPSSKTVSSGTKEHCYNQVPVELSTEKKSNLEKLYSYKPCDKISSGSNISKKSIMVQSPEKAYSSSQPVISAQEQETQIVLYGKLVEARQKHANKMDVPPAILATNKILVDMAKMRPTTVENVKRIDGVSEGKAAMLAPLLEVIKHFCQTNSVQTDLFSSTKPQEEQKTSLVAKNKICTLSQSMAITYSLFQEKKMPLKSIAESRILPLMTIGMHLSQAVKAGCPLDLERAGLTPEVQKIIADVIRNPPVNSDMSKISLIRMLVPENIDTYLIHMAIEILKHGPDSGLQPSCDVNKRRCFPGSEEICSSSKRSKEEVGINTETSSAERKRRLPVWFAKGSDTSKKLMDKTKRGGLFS
Data set [3] addresses BLM RecQ-core (core-BLM) (human) (UniProt P54132). Put plainly: smFRET (GQ unfolding titration, Langmuir). As to conditions: strand 2 is RNA, smFRET: 150 mM K+ (or 50 mM K+, 50/150 mM Na+), 5 mM Mg2+, pH 7.5, EMSA: 50 mM K+, 50 mM Tris-HCl pH 7.5, 1 mM DTT, 22 C.
The target is the same in data set [4]. Put plainly: smFRET. As to conditions: strand 2 is RNA, smFRET: 150 mM K+ (or 50 mM K+, 50/150 mM Na+), 5 mM Mg2+, pH 7.5, EMSA: 50 mM K+, 50 mM Tris-HCl pH 7.5, 1 mM DTT, 22 C.
The target is the same in data set [5]. Description: smFRET. The following applies: smFRET: 150 mM K+ (or 50 mM K+, 50/150 mM Na+), 5 mM Mg2+, pH 7.5, EMSA: 50 mM K+, 50 mM Tris-HCl pH 7.5, 1 mM DTT, 22 C.
Where [6] appears, read: nt-free, 150 mM Na+, strand 2 is RNA.

Several values for one entry are separate records, joined by “and”; a condition that tells them apart may be missing. Equal entries are not always repeated.

Sequence of BLM RecQ-core (core-BLM) (human) (P54132 642-1290): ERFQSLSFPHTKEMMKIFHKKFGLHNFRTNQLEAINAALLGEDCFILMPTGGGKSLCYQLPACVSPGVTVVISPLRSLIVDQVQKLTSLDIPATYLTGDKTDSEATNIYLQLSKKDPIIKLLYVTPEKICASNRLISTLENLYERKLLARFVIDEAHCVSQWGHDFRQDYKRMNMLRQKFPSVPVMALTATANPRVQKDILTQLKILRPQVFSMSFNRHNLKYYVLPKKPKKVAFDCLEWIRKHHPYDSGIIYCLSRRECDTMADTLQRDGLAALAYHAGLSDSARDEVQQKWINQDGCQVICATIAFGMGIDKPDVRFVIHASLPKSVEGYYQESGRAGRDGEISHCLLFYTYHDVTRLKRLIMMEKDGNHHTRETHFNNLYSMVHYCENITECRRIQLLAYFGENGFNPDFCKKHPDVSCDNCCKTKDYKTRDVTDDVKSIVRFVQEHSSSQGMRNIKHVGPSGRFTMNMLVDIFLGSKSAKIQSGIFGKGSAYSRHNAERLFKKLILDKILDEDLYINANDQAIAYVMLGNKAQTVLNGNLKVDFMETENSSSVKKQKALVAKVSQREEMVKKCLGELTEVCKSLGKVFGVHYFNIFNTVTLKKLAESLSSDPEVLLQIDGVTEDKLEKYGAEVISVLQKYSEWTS

For the sequence “TGGCGACGGCAGCGAGGCTAGGGTTAGGGTTAGGGTTAGGGTTTTTTTTTTTT / GCCUCGCUGCCGUCGCCA [pd-hGQ12T]”, the binding signal (% unfolded at 25 nM) in data set [1] (ATPgS, strand 2 is RNA) came out at 25; in data set [1] (nt-free, strand 2 is RNA), 18; in data set [2] (ATPgS), 25; in data set [2] (nt-free) it was 8. The same sequence showed a binding signal (% unfolded at 300 nM) in data set [1] (setting [6]) of 17. The sequence also had a binding signal (% unfolded at 1000 nM) in data set [1] (setting [6]) of 38. The K half in data set [3] (1 mM ADP, 150 mM K+, alpha 32%) amounted to 55 nM; in data set [3] (1 mM ATPgS, 150 mM K+, alpha 53%) it was 108 nM; in data set [3] (nt-free, 50 mM K+, alpha 55%) it was 28 nM; in data set [3] (nt-free, 150 mM K+, alpha 49%), 305 nM.

Regarding “TGGCGACGGCAGCGAGGCTAGGGTTAGGGTTAGGGTTAGGGTTTTTTTTTTTTTTT / GCCUCGCUGCCGUCGCCA [pd-hGQ15T]”, the binding signal in data set [1] (ADP, strand 2 is RNA) is 22 % unfolded; in data set [1] (ATPgS, strand 2 is RNA), 57 % unfolded; in data set [1] (nt-free, strand 2 is RNA), 48 % unfolded.

Turning to “TGGCGACGGCAGCGAGGCTTGGGTGGGTGGGTGGGTTTTTTTTTTTT / GCCUCGCUGCCGUCGCCA [pd-3Ly1Lp12T]”, in data set [1] (strand 2 is RNA), the binding signal (% unfolded at 1 uM) is 46 and 58.

Take “TGGCGACGGCAGCGAGGCTTTTTTTTTTTTTTT / GCCUCGCUGCCGUCGCCA [pd-polyT15]”: the binding signal (% bound at 1 uM) in data set [4] amounted to 36; in data set [5] (1 mM ADP, 150 mM K+, strand 2 is RNA) it was 12; in data set [5] (strand 2 is RNA) it was 21. In data set [5] (nt-free, strand 2 is RNA), the binding signal (fold higher Keq in 150 vs 50 mM Na+) came out at 4.7.

With “TTTTTTTTTTTTGGGTTAGGGTTAGGGTTAGGGTTTGGCGACGGCAGCGAGGC / GCCTCGCTGCCGTCGCCA [pd-hGQ12T-5']”, the binding signal (% unfolded at 1 uM) turned out to be 30 in data set [1] (ATPgS, 50 mM K+) and 21 in data set [1] (nt-free, 50 mM K+).

“TTTTTTTTTTTTTTTTGGCGACGGCAGCGAGGC / GCCTCGCTGCCGTCGCCA [pd-polyT15-5']” registered a binding signal (% bound at 1 uM) in data set [5] (1 mM ATPgS, 50 mM K+) of 53.

Source of the values: paper PMC4191421.
